Assay results taken from patent US20080176247A1 (INDUSTRIAL TECHNOLOGY RESEARCH INSTITUTE, published 2008).

Target: T1, purified recombinant extracellular domain of EGF receptor (EGFR-ECD; Research Diagnostics, Inc.) (UniProt P00533 25-645, limits assumed)
T1 construct: extracellular domain; Bought protein
Test: SPR (BIAcore X), EGFR-ECD immobilized on C1 chip, 1:1 Langmuir fit
Method: Each antibody was injected at indicated concentrations and flowed over a surface chip with immobilized EGFR extracellular domain at a flow rate of 10 μl/min.
The surface was regenerated by injection of 5 μl of 10 mM glycine-HCl, pH 3.5. Sensorgrams were obtained at each concentration and were evaluated using the program, BIA Evaluation 3.2. Binding data were titled with a 1:1 Langmuir binding model to calculate the equilibrium dissociation constant, KD, which was defined as the ratio of dissociation rate (koff)/association rate (kₒₙ).

Row | Kd [nM] | koff [s⁻¹] | kon [M⁻¹ s⁻¹] | Binder
1 | 4960 | 0.0741 | 15000 | erb_scFv (scFv, not shown: small tags and cut ends, Made in NS0 cells for the SPR work) scFv: MAEVQLLESGGGLVQPGGSLRLSCAASGFTFSSYAMSWVRQAPGKGLEWVSDIGASGSATSYADSVKGRFTISRDNSKNTLYLQMNSLRAEDTAVYYCAKSTTTFDYWGQGTLVTVSSGGGGSGGGGSGGGGSTDIQMTQSPSSLSASVGDRVTITCRASQSISSYLNWYQQKPGKAPKLLIYDASALQSGVPSRFSGSGSGTDFTLTISSLQPEDFATYYCQQYADYPTTFGQGTKVEIKR
2 | 104 | 0.00944 | 90900 | erb_scFv-Fc (Fc fusion, not shown: Fc region) MAEVQLLESGGGLVQPGGSLRLSCAASGFTFSSYAMSWVRQAPGKGLEWVSDIGASGSATSYADSVKGRFTISRDNSKNTLYLQMNSLRAEDTAVYYCAKSTTTFDYWGQGTLVTVSSGGGGSGGGGSGGGGSTDIQMTQSPSSLSASVGDRVTITCRASQSISSYLNWYQQKPGKAPKLLIYDASALQSGVPSRFSGSGSGTDFTLTISSLQPEDFATYYCQQYADYPTTFGQGTKVEIKR
